Assay results taken from the supplement of paper PMC10201428.
± gives the standard deviation of the averaged measurements.

B1: library; a variant is named by its letters at N, in order (parent)
chain: AATGTTGTTGATGCAACCATAAAGTGATATTTAATAATTATTTATAATCAGCAACTTAACCACAAAACAACCATATATTGATATNTCACAAAACAACCATAANTTGATATTTTTGTGAATCGAGTATTTCAGCAAAACTACTGCAGTAAGAA

What was measured:
[1] = variants of: B1; experiment: relative integration efficiency (T-LR orientation) vs wild-type transposon end (log2 (normalized fold change)); transposon end mutated: left end; higher = more efficient transposition; conditions: with VchCAST RNA-guided transposition machinery (E. coli BL21(DE3) host, lacZ target)
Outline: (§1)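 Co-transformation of E. coli BL21(DE3) combined a pUC57 mini-transposon donor, holding barcoded pools of 1549 left-end or 1849 right-end variants, with a T7-driven plasmid encoding a CRISPR array, tniQ-cas8-cas7-cas6 and tnsA-tnsB-tnsC. After plating with 0.1 mM IPTG at 37°C for 18 h, input plasmids and genomic integration junctions were PCR-amplified and Illumina-sequenced across two biological output replicates, with four reference barcodes. Relative integration efficiency is the normalised, log-transformed output/input barcode fold change.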

[2] = variants of: B1; experiment: relative integration efficiency (T-RL orientation) vs wild-type transposon end (log2 (normalized fold change)); transposon end mutated: left end; higher = more efficient transposition; conditions: with VchCAST RNA-guided transposition machinery (E. coli BL21(DE3) host, lacZ target)
Outline: as §1

Variant | relative integration efficiency (log2) [1] | relative integration efficiency (log2) [2]
CG A36C A37C T38G T39G | -0.25 ± 0.0025 | -0.22 ± 0.14
CG T32G | -0.347 ± 0.098 | -0.146 ± 0.14
TG G24A T30A T76A A77G C87T | 0.724 ± 0.54 | 0.0845 ± 0.24
CG C68A | -0.255 ± 0.47 | -0.433 ± 0.32
CG C68T | -1.08 ± 0.81 | -0.627 ± 0.41
TA A22T G24T T31C A33C T76A A77G C87T A96C T110A T113A | 0.345 ± 0.28 | -0.753 ± 0.58
CG G24T T78G T104G | 0.121 ± 0.35 | -0.352 ± 0.37
CG A96T C97G | -0.64 ± 0.43 | -0.723 ± 0.29
CG A69T | -0.153 ± 0.2 | -0.525 ± 0.1
CG A69C | -0.309 ± 0.7 | -0.363 ± 0.1
CG A101G | -1.62 ± 1.1 | -1.22 ± 0.47
CG A90C A91C | -0.406 ± 0.87 | -0.15 ± 0.34
TA A16C G24T T32G A33C T76A T78G C87A A96C T110A T113A | -0.283 ± 0.56 | -0.233 ± 0.26
CG A75T | -0.0748 ± 0.42 | -0.289 ± 0.15
TA A23G G24T A33T A70C T76A T86G T104G T113A | 0.529 ± 0.03 | -0.0666 ± 0.38
CG A33T A34T T35A A36T | 0.405 ± 0.42 | 0.295 ± 0.092
CG T3G G4T T5G T6G | < -10 | -7.767 ± 0.04
CG G26C A27T | -3.33 ± 1.1 | -2.12 ± 0.85
TA A16C G24T T32G A33C A70C T76A T84A C87A T104G T113A | -1.55 ± 1.7 | -0.951 ± 0.57
CA A16C G24T T32G A33C A102T T111C T113C | -0.854 ± 0.58 | -0.751 ± 0.51
CG C61A A62C | 0.514 ± 0.034 | 0.443 ± 0.054
TA A22T G24T T31C A33C T76A T78G C87A T104G T113A | -0.379 ± 0.48 | -0.685 ± 0.35
TA A22T G24T T31C A33C T76A A77G C87T T104G T113A | -1.13 ± 0.85 | -1.41 ± 0.56

Variant | relative integration efficiency (log2) [1] | relative integration efficiency (log2) [2]
TA A16C G24T T32G A33C T76A T78A T84A C87A T104G T113A | -0.166 ± 0.52 | -0.296 ± 0.42
CG A37G | 0.434 ± 0.033 | 0.146 ± 0.027
TG A22T G24T T31C A33C A70C T76A T84A C87A | -0.478 ± 0.83 | -0.488 ± 0.46
CG A66G | -0.258 ± 0.65 | 0.0591 ± 0.047
CG A65T A66T | 0.447 ± 0.39 | 0.107 ± 0.0079
CG A65C A66C | 0.318 ± 0.48 | 0.0588 ± 0.077
CG A70C | 0.268 ± 0.068 | 0.0994 ± 0.073
CG A70G | -0.515 ± 0.21 | -0.664 ± 0.41
CG T28C | -0.0735 ± 0.44 | -0.273 ± 0.15
CG T28A | -0.399 ± 0.64 | -0.37 ± 0.28
CG A44T | 0.138 ± 0.09 | 0.0943 ± 0.032
CG G24T | 0.871 ± 0.023 | 0.72 ± 0.19
CG T105C | -0.552 ± 0.81 | -0.583 ± 0.2
CG T48G C49A | -0.72 ± 0.49 | -0.681 ± 0.47
CG G117A | -0.315 ± 0.5 | -0.123 ± 0.016
CG A21C A22C | -1.77 ± 0.64 | -1.82 ± 0.43
CG T116G G117T A118C A119C | -0.21 ± 0.42 | 0.0794 ± 0.11
CG T9G G10T A11C T12G | -1.29 ± 0.52 | -0.645 ± 0.35
CG C17G C18G | -0.437 ± 0.49 | -0.313 ± 0.33
TA A70C T76A T86G T104A T110A T113A | 0.0387 ± 0.67 | -0.344 ± 0.23
TA A16C G24T T32G A33C T76A T78G C87A T104A T110A T113A | -0.325 ± 0.88 | -0.13 ± 0.49
CG A1T A2T G4T T5G | -0.165 ± 0.16 | -0.0703 ± 0.2
CG A62T | 1.22 ± 0.39 | 1.17 ± 0.29

Variant | relative integration efficiency (log2) [1] | relative integration efficiency (log2) [2]
TA T76A A77G C87T T104A T110A T113A | 0.28 ± 0.36 | -0.703 ± 0.35
CG A44T T45A | 0.734 ± 0.13 | 0.214 ± 0.11
TA T76A T78A T84A C87A A96C T110A T113A | 0.0631 ± 0.19 | 0.318 ± 0.081
TA G24A T30A A70C T76A T84A C87A A96C T112G T113C | 0.302 ± 0.58 | 0.326 ± 0.17
TA G24A T30A A70C T76A T84A C87A A102T T111C T113C | -0.133 ± 0.92 | -0.0645 ± 0.27
CG T41G T42G T43G A44C | 0.146 ± 0.074 | -0.195 ± 0.099
TA G24A T30A T76A A77G C87T A96C T112G T113C | -0.263 ± 0.26 | 0.0641 ± 0.26
CG A33T A34T | 0.663 ± 0.25 | 0.125 ± 0.061
CG T112A T113A T114A G115C | -0.584 ± 1 | 0.0734 ± 0.12
CG T30G T31G | -1.56 ± 0.31 | -0.964 ± 0.45
CG A23G | 0.359 ± 0.084 | -0.0169 ± 0.11
CG A119G | 0.273 ± 0.044 | 0.0234 ± 0.071
CG A119C | 0.11 ± 0.18 | -0.107 ± 0.1
CG G4C | 0.0545 ± 0.11 | -0.131 ± 0.036
CT T104G T105G G106T | -1.03 ± 0.46 | -1.06 ± 0.9
CG T76A A77T | -0.19 ± 0.3 | 0.117 ± 0.012
CG A99C T100G A101C A102C | -1.07 ± 1.4 | -1.82 ± 0.89
TG G24A T30A T76A T78A T84A C87A | 0.236 ± 0.09 | 0.0157 ± 0.17
CG A102T | 0.323 ± 0.19 | -0.123 ± 0.24
AG T31G T32G A33C T86G C87A T111G T112G T113G | -1.26 ± 0.48 | -1.07 ± 0.49
CG C52A | 0.484 ± 0.55 | 0.279 ± 0.017
CG C97T | -0.391 ± 0.74 | -0.324 ± 0.13
TA G24A T30A T76A T78G C87A T104A T110A T113A | 0.464 ± 0.53 | -0.242 ± 0.034

Variant | relative integration efficiency (log2) [1] | relative integration efficiency (log2) [2]
TA A16C G24T T30A T76A T78A T84A C87A T104G T113A | -0.559 ± 0.18 | -0.412 ± 0.26
CG A64G | -0.0623 ± 0.097 | -0.383 ± 0.14
CG T113A | -0.342 ± 0.22 | -0.277 ± 0.047
CG T113C | 0.405 ± 0.02 | 0.263 ± 0.16
CG A90T A91T | 0.245 ± 0.23 | -0.308 ± 0.26
CG A27T T28A A29T T30A | -0.918 ± 0.29 | -0.753 ± 0.39
CG T12C | -0.943 ± 0.57 | -0.0642 ± 0.048
CG A119T T120A | -0.0736 ± 0.29 | -0.226 ± 0.056
CG A66C A67C | -0.404 ± 0.29 | -0.0641 ± 0.033
TA T76A A77G C87T T104G T113A | 0.151 ± 0.33 | -0.605 ± 0.42
TG A23G G24T A33T T76A T78G C87A | 0.632 ± 0.11 | 0.16 ± 0.09
CG A77C T78G | 0.461 ± 0.32 | 0.644 ± 0.21
CG T25G T79G T105G | -3.03 ± 1.7 | -2.73 ± 1.2
CG A96G | -1.06 ± 0.18 | -0.704 ± 0.32
CG A91C A92C | 0.242 ± 0.39 | -0.116 ± 0.2
TA A23G G24T A33T A70C T76A T86G A102T T111C T113C | -0.846 ± 0.11 | -0.375 ± 0.19
CC A22T A23T T76A A77T A102T | -0.252 ± 0.23 | -0.313 ± 0.27
CG A99T T100A A101T A102T | -0.997 ± 0.78 | -1.06 ± 0.48
CG A46T A47T T48G C49T A50G G51A C52G A53C A54G C55G T56A C61A | -1.93 ± 2 | -1.9 ± 0.78
CG C55G T56A | 0.0301 ± 0.44 | 0.0691 ± 0.024
TA T76A A77G C87T A102T T111C T113C | -0.406 ± 0.13 | -0.659 ± 0.28
CG A19T T20A | -0.844 ± 0.51 | -1.12 ± 0.56
CG A19T A73T A99T | -2.5 ± 0.48 | -2.22 ± 0.88

Variant | relative integration efficiency (log2) [1] | relative integration efficiency (log2) [2]
CG T39A A40T T41A T42A | 0.453 ± 0.17 | 0.475 ± 0.019
CG C89A A90C A91C A92C | -0.143 ± 0.65 | -0.537 ± 0.37
CG T86A | 0.731 ± 0.2 | 0.656 ± 0.025
CG T86G | 0.0399 ± 0.26 | -0.108 ± 0.045
CG T28A T82A T108A | -2.22 ± 2.1 | -1.09 ± 0.57
CG A77T T78A | 0.574 ± 0.48 | 0.149 ± 0.12
CG C98G A99T | -1.62 ± 0.4 | -1.51 ± 0.56
CG A96T C97G C98G A99T | -2 ± 1.1 | -2.05 ± 0.9
CG A67C C68A A69C A70C | -0.846 ± 1.2 | -0.531 ± 0.42
CG A99T | -1.41 ± 0.62 | -0.877 ± 0.54
CG G10T A11C | -2.92 ± 0.037 | -1.58 ± 0.41
CG T111A T112A | -0.101 ± 0.79 | -0.479 ± 0.31
CG A58T A59T C60G C61G | -0.383 ± 0.24 | -0.275 ± 0.27
CG T5G | 0.0272 ± 0.098 | 0.0254 ± 0.14
TG G24A T30A A70C T76A T86G | 1.23 ± 0.52 | 0.692 ± 0.36
CG A119C T120G | -0.429 ± 1.1 | -0.131 ± 0.072
CG A77T | -0.192 ± 0.066 | -0.217 ± 0.059
CG A77G | 0.0745 ± 0.45 | -0.243 ± 0.024
TA T76A T78G C87A A96C T110A T113A | -0.0777 ± 0.55 | -0.0885 ± 0.14
CG C60A C61A | 0.547 ± 0.41 | 0.353 ± 0.049
CG C18A A19C T20G A21C | -2.8 ± 0.18 | -3.18 ± 0.65
CG A90C A91C A92C A93C | -0.132 ± 0.77 | -0.283 ± 0.31
CG G51C C52G | -0.162 ± 0.74 | -0.107 ± 0.11
